{
  "source": "paper PMC12216052",
  "about": "(Nature Communications, 2025)",
  "binders": {"B1": {"name": "Human DLL4 (N-EGF5, amino acids 27-400) (domain or fragment, UniProt Q9NR61 27-400, looked up)", "chain": "SGVFQLQLQEFINERGVLASGRPCEPGCRTFFRVCLKHFQAVVSPGPCTFGTVSTPVLGTNSFAVRDDSSGGGRNPLQLPFNFTWPGTFSLIIEAWHAPGDDLRPEALPPDALISKIAIQGSLAVGQNWLLDEQTSTLTRLRYSYRVICSDNYYGDNCSRLCKKRNDHFGHYVCQPDGNLSCLPGWTGEYCQQPICLSGCHEQNGYCSKPAECLCRPGWQGRLCNECIPHNGCRHGTCSTPWQCTCDEGWGGLFCDQDLNYCTHHSPCKNGATCSNSGQRSYTCTCRPGYTGVDCELELSECDSNPCRNGGSCKDQEDGYHCLCPPGYYGLHCEHSTLSCADSPCFNGGSCRERNQGANYACECPPNFTGSNCE", "notes": "Delta-like 4 (DLL4), human, N-EGF5, amino acids 27-400; also called DLL4(N-5); source: Tni insect cells (baculovirus), purified (nickel chromatography, SEC)"}},
  "biological_target": "T1, Notch1(EGF1-36) (amino acids 20-1426) (human, UniProt P46531 20-1426, biotin, chemically at the N-terminus (EZ-Link Sulfo-NHS-Biotin))",
  "T1 construct": "NOTCH1, human, EGF1-36, amino acids 20-1426; also called NOTCH1 ECD; source: Tni insect cells (baculovirus), purified (nickel chromatography with 1 mM calcium, SEC), chemically biotinylated",
  "experiment": "SPR; ~300 RU biotinylated NOTCH1(EGF1-36) on a streptavidin chip; DLL4(N-5) or DLK1 ECD as analyte; HBS-P20-BSA with 1 mM CaCl2; reference: ZNRF3 ECD",
  "conditions": "both partners purified",
  "data": [
    {"binder": "B1", "values": [
      {"measurement": "binding result", "result": "binds"}
    ]}
  ]
}
